{"source": "patent US7553821B2", "about": "“Methods for selectively modulating survivin apoptosis pathways” (Yale University, priority 2000, dated 2009)", "biological_target": "T1, caspase-8 (Homo sapiens, UniProt Q14790)", "T1 construct": "endogenous in cells; host or cells: HeLa", "assay": "Co-immunoprecipitation of survivin and caspase-8 from HeLa cells", "format": "binding", "settings": "transfected HeLa cells", "protocol": "The experimental conditions are the same as in A, except that HA-survivin and HA-survivin(T34A) immunoprecipitates were separately immunoblotted with antibodies to caspase-8 or HA. S, supernatant of HA-survivin immunoprecipitate. Arrow, position of ˜55 kDa proform caspase-8.\nTransfection experiments. For transient transfection, HeLa cells in C-6 tissue culture plates (Costar, Cambridge, Mass.) at ˜60-70% confluency, were incubated in 1 ml of serum-free OptiMEM medium (Life Technologies, Gaithersburg, Md.) for 20 min, and transfected with 2.5 μg of the various plasmid cDNAs plus 9 μl Lipofectamine (Life Technologies). After a 5 h incubation at 37° C., the mixture was aspirated and substituted with complete growth medium for 48-72 h. To generate stable YUSAC-2 transfectants, a survivin(T34A) cDNA was inserted into the HindIII-SpeI sites of the pTet-splice vector (Dr. D. Schatz, Yale University School of Medicine), downstream of the regulatory sequences of the Tet-resistance operon (TetO). YUSAC-2 cells were transfected with 0.8 μg pTet-T34A, 0.8 μg of the transactivation/selection plasmid ptTA-Neo and 5 μl Lipofectamine in 1 ml of OptiMem. […] Gated GFP-expressing cells were analyzed for DNA content by flow cytometry on a FACSort (Becton Dickinson, San Jose, Calif.) using a Cell Quest software. […]"}
{"substance": "survivin(T34A): dominant-negative, non-phosphorylatable survivin mutant with Thr34→Ala substitution, expressed from transfected cDNA (also HA- or GFP-tagged)", "values": [{"measurement": "caspase-8 in immunoprecipitates by Western blotting", "value": "did not contain another upstream initiator caspase, caspase-8"}]}
